Patent publication US20230348609A1 (WUXI BIOLOGICS SHANGHAI, published 2023)

Assays:
[1] = target: T1, human CD40, full-length, on cells (human, UniProt P25942 21-277); assay: FACS on W352-CHOK1.hPro1.A7 cells (CHO-K1 with full-length human CD40); W352-CHOK1.hPro1.A7 cells
T1 construct: whole, on cells; Transfected full-length CD40 on CHO-K1 and U937 cells; Endogenous CD40 on Raji, A431, Ramos, primary B cells and dendritic cells; also called cell surface human CD40; W352-CHOK1.hPro1.A7
Description: (§1) W352-CHOK1.hPro1.A7 (1×10⁵ cells/well), Raji (1×10⁵ cells/well) or A431 (5×10⁴ cells/well) cells were incubated with various concentrations of W3525 antibody (3-fold serially diluted from 100 nM to 0.0051 nM, or 5-fold serially diluted from 100 nM to 0.00128 nM) at 4° C. for 1 hour. After washing with 1×PBS/1% BSA, the secondary antibody, Alex647-labeled goat anti-human IgG (1:250) or R-PE-labeled goat anti-human IgG (1:150) was added and incubated with cells at 4° C. in dark for 1 hour. Anti-human CD40 antibodies BMK4 and BMK5 were used as positive controls. Human IgG1 and IgG2 isotype antibodies were used as isotype controls. The cells were then washed and re-suspended in 1×PBS/1% BSA. MFI of the cells was measured by a flow cytometer and analyzed by FlowJo. GraphPad Prism was used to plot the log of antibody concentration (x-axis) versus MFI (y-axis). The EC50 values were determined using four-parameter dose-response curve model.
(§2) The binding result of W3525 on W352-CHOK1.hPro1.A7, Raji and A431 cells are shown in FIGS. 1, 2 and 3, respectively.

[2] = target: T1, human CD40, full-length, on cells; assay: cell-based or functional assay
[3] = target: T2, CD40 protein, rat, recombinant (His tag) (rat, UniProt A6JXD6 20-193); assay: ELISA, plate coated with 1 ug/mL recombinant CD40 extracellular domain
T2 construct: Bought protein; also called rat CD40; not shown: C-terminal His tag of the vendor's construct (SinoBiological 80151-R08H)
T2 sequence: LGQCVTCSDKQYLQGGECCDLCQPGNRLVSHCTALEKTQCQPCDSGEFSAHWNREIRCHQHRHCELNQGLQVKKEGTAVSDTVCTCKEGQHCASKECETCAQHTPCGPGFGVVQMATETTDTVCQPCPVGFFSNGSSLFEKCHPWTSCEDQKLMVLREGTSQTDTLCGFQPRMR
Description: (§3) Plate was pre-coated with 1 μg/mL of recombinant human CD40, OX40, 4-1BB, GITR or BCMA extracellular domain in 100 μL coating buffer (0.02 M Na₂CO₃ and 0.18 M NaHCO₃, pH9.2) per well at 4° C. overnight. Next day, the plate was washed with 1×PBST for one time. After 1-hour blocking using 200 μL of 1×PBS/2% BSA, the plate was washed using 1×PBST for 3 times. W3525 was added to the plate at a concentration of 66.7 nM and incubated at ambient temperature for 1 hour. Anti-CD40 antibodies BMK4 and BMK5, anti-OX40 antibody MEDI0562, anti-4-1BB antibody BMS-663513, anti-GITR antibody INCAGN01876 and anti-BCMA antibody EM801 were used as positive controls, respectively. Human IgG2 isotype antibody was used as isotype control. After incubation, the plate was washed using 1×PBST for 3 times. HRP-labeled goat anti-human IgG antibody diluted in 1×PBS/2% BSA at a ratio of 1:5000 was added and incubated for 1 hour. After washing with 1×PBST for 6 times, the color was developed by dispensing 100 μL of TMB substrate, and then reaction was stopped by adding 100 μL of 2M HCl. Absorbance was read at 450 nm and 540 nm using a microplate spectrophotometer. GraphPad Prism was used to plot the antibody concentration (x-axis) versus absorbance (y-axis). All samples were tested in duplicate.
(§4) Plate was pre-coated with 1 μg/mL of recombinant human, cynomolgus monkey, mouse, canine or rat CD40 extracellular domain in 100 μL coating buffer per well at 4° C. overnight. Then the ELISA procedure was performed as described above. Anti-human CD40 antibodies BMK4 and BMK5 were used as positive controls. Human IgG1 and IgG2 isotype antibodies were used as isotype controls.

W352-mPro1.ECD.His = target: T3, W352-mPro1.ECD.His (mouse, UniProt P27512 20-193); assay: as above
T3 construct: range 20-193; The ELISA of 3.5 says only 'recombinant mouse CD40 extracellular domain'; also called Mouse CD40 extracellular domain, His tag; mouse CD40; not shown: His tag
T3 sequence (P27512 20-193 limits assumed): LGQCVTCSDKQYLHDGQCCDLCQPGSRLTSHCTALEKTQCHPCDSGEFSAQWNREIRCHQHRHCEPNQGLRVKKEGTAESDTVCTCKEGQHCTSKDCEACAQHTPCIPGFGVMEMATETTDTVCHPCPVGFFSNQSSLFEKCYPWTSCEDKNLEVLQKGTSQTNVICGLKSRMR
Description: as §3, §4

[4] = target: T4, CD40 protein, canine, recombinant (His tag) (canine, UniProt Q7YRL5 21-194); assay: as above
T4 construct: extracellular domain; Bought protein; also called canine CD40
T4 sequence (looked up): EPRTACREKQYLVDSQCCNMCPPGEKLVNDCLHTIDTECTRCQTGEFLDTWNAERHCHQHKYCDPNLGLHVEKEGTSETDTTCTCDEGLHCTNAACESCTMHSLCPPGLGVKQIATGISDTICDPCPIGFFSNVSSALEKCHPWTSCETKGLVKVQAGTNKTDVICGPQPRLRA
Description: as §3, §4

[5] = target: T1, human CD40, full-length, on cells; assay: cell-based or functional assay; remark: listed apart in the source
[6] = target: T5, cynomolgus monkey CD40 on transiently transfected 293F cells (cynomolgus monkey, UniProt G7PG38 21-278); assay: FACS on 293F cells transiently transfected with cynomolgus monkey CD40
T5 construct: whole, on cells; also called cell surface cynomolgus monkey CD40
Description: Cynomolgus monkey CD40 transiently transfected 293F cells (2×10⁵ cells/well) were incubated with various concentrations of W3525 (3-fold serially diluted from 200 nM to 0.0102 nM) at 4° C. for 1 hour. After washing with 1×PBS/1% BSA, a secondary antibody, R-PE-labeled goat anti-human IgG (1:150) was added and incubated with cells at 4° C. in dark for 1 hour. The cells were washed and suspended and the MFI and EC50 values were determined as described above.

[7] = target: T6, Human GITR protein (His tag, ECD) (human, UniProt Q9Y5U5 26-162); assay: ELISA, plate coated with 1 ug/mL recombinant extracellular domain
T6 construct: extracellular domain; Bought protein
T6 sequence (looked up): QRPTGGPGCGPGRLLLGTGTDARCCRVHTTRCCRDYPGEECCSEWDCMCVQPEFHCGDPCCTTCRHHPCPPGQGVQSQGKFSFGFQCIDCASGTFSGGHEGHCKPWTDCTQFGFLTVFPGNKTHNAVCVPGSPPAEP
Description: as §3

[8] = target: T7, recombinant human 4-1BB extracellular domain (human, UniProt Q07011 24-186); assay: as above
T7 construct: extracellular domain
T7 sequence (Q07011 24-186): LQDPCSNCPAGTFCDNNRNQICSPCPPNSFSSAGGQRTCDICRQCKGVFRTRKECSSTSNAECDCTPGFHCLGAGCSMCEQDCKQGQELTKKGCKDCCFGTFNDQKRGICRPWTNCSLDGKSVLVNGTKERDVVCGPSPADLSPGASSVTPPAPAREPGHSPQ
Description: as §3

[9] = target: T8, recombinant human OX40 extracellular domain (human, UniProt P43489 29-214); assay: as above
T8 construct: extracellular domain
T8 sequence (looked up): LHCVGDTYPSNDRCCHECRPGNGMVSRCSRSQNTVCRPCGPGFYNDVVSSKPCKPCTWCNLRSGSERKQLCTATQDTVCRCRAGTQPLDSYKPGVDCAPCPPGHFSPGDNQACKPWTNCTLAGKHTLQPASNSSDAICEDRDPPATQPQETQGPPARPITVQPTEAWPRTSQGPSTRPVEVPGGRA
Description: as §3

[10] = target: T9, recombinant human BCMA extracellular domain (human, UniProt Q02223 1-54); assay: as above
T9 construct: extracellular domain
T9 sequence (looked up): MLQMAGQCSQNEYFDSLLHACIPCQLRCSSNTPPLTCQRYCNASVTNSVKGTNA
Description: as §3

W352-hPro1.ECD.His = target: T10, W352-hPro1.ECD.His (human, UniProt P25942 21-193); assay: SPR, Biacore 8K; antibody captured by goat anti-human Fc; analyte W352-hPro1.ECD.His; 1:1 model
T10 construct: range 21-193; Also used for the 'recombinant human CD40 extracellular domain' coated in the ELISAs of 3.4 and 3.5; also called Human CD40 extracellular domain, His tag; human CD40 free protein; not shown: His tag
T10 sequence (P25942 21-193 limits assumed): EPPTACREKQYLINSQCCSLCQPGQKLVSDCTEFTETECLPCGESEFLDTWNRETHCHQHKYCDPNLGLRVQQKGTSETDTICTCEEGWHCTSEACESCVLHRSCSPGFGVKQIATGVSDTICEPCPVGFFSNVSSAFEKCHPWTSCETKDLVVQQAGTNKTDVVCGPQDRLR
Description: The affinity of W3525 to human CD40 was determined using Biacore 8K. The activator was prepared by mixing 400 mM EDC and 100 mM NHS immediately prior to injection. The CMS sensor chip was activated for 420 s with the activator at a flow rate of 10 μL/min. Goat anti-human Fc IgG (30 μg/mL in 10 mM NaAc, pH 4.5) was then injected to the channels for 420 s at a flow rate of 10 μL/min The chip was deactivated by 1 M ethanolamine-HCl at a flow rate of 10 μL/min for 420 s. After immobilization, the antibody W3525 was diluted to 66.7 nM in running buffer (1×HBS-EP+) and was captured onto the channel Fc4 at a flow rate of 10 μL/min for 30 s. Seven concentrations (0, 1.5625, 3.125, 6.25, 12.5, 25 and 50 nM) of analyte W352-hPro1.ECD.His were injected orderly to the channels at a flow rate of 30 μL/min for an association phase of 90 s, followed by 300 s dissociation. Glycine solution (10 mM, pH 1.5) as regeneration buffer was injected following dissociation phase to regenerate the chip.
Molecular weight of 29 kDa was used to calculate the molar concentration of W352-hPro1.ECD.His.

[11] = target: T1, human CD40, full-length, on cells; assay: cell-based or functional assay; remark: listed apart in the source
[12] = target: T1, human CD40, full-length, on cells; assay: FACS on Raji cells (human CD40 binding assay); Raji cells
Description: as §1, §2

W352-cynoPro1.ECD.His = target: T11, W352-cynoPro1.ECD.His (cynomolgus monkey, UniProt G7PG38 21-193); assay: SPR, Biacore T200; antibody captured by goat anti-human Fc; analyte W352-cynoPro1.ECD.His
T11 construct: range 21-193; Also used for the 'recombinant cynomolgus monkey CD40 extracellular domain' coated in the ELISA of 3.5; also called Cynomolgus monkey CD40 extracellular domain, His tag; W352-cPro1.ECD.His; not shown: His tag
Description: The affinity of W3525 to cynomolgus monkey CD40 was determined using Biacore T200. The process of immobilization was the same as that of Biacore 8K. The antibody W3525 was diluted to 33.35 nM in running buffer (1×HBS-EP+) and was captured onto Fc2 at a flow rate of 10 μL/min for 60 s. Seven concentrations (0, 1.56, 3.13, 6.25, 12.5, 25 and 50 nM) of analyte W352-cynoPro1.ECD.His were injected orderly to Fc1 and Fc2 at a flow rate of 30 μL/min for an association phase of 240 s, followed by 300 s dissociation. After each cycle, glycine solution (10 mM, pH 1.5) as regeneration buffer was injected to regenerate the chip.
Molecular weight of 29 kDa was used to calculate the molar concentration of W352-cPro1.ECD.His.

[13] = target: T1, human CD40, full-length, on cells; assay: FACS on A431 cells (human CD40 binding assay); A431 cells
Description: as §1, §2

[14] = target: T1, human CD40, full-length, on cells; assay: FACS competition on W352-CHOK1.hPro1.A7 cells; competitor W352-hpro1L1.ECD.mFc at 5 ug/mL
Description: W352-CHOK1.hPro1.A7 cells were plated in a 96-well plate at a density of 1×10⁵ cells/well. A constant concentration of W352-hPro1L1.EECD.mFc (5 μg/mL) diluted in 1×PBS/1% BSA was added to the cells, followed by serially diluted antibodies (3-fold serially diluted from 60 nM to 0.0274 nM in 1×PBS/1% BSA), and mixed well. The plate was incubated at 4° C. for 1 hour.

T1 sequence (P25942 21-277): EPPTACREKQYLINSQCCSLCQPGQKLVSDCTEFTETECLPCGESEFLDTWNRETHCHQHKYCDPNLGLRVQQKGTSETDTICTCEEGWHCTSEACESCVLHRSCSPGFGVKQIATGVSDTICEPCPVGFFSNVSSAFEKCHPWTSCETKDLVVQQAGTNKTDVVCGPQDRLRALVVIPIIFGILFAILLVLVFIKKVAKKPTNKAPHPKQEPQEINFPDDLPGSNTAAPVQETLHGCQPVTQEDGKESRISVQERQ

EC50 [1]: 1.1 nM
EC50, B cell proliferation [2]: 0.16 nM
binding result [3]: no binding
binding result (W352-mPro1.ECD.His): no binding
binding result [4]: no binding
EC50, NFκB reporter assay, W352-Ramos.NFκBRE.luc [5]: 1.4 nM
EC50, NFκB reporter assay, W352-U937.hPro1.NFκBRE.luc [5]: 1.3 nM
EC50 [6]: 2.4 nM
binding result [7]: no binding (tested: 66.7 nM)
binding result [8]: no binding (tested: 66.7 nM)
binding result [9]: no binding (tested: 66.7 nM)
binding result [10]: no binding (tested: 66.7 nM)
Kd (W352-hPro1.ECD.His): 7.12 nM
koff (W352-hPro1.ECD.His): 0.00405 s⁻¹
kon (W352-hPro1.ECD.His): 569000 M⁻¹ s⁻¹
EC50, CD54 expression, DC activation assay [11]: 0.35 nM
EC50, CD80 expression, DC activation assay [11]: 0.37 nM
EC50, CD83 expression, DC activation assay [11]: 0.16 nM
EC50, CD86 expression, DC activation assay [11]: 0.56 nM
EC50, IL-12p40 release, DC activation assay [11]: 0.47 nM
EC50 [12]: 0.36 nM
Kd (W352-cynoPro1.ECD.His): 8.47 nM
koff (W352-cynoPro1.ECD.His): 0.00377 s⁻¹
kon (W352-cynoPro1.ECD.His): 444000 M⁻¹ s⁻¹
EC50 [13]: 0.16 nM
IC50 [14]: 1.4 nM
B1: W3525-1.9.16-P5-uIgG2K (antibody, V domains shown)
VH: QVQLVQSGAEVKKPGSSVKVSCKASGDTVSSYGISWVRQAPGQGLEWMGGSIPFFGTPNYAQKFQGRVTFTADESTSTAYMELSSLRSEDTAVYYCARARRGYSYGHYHYYAMDVWGQGTTVTVAS
VL: DTVMTQSPLSLPVTPGEPASISCRSGQSLLHNNAYNYLDWYLQKPGQSPQLLIYLGSNRASGVPDRFSGSGSGTDFTLKISRVEAEDVGVYYCMQALQTPLSFGGGTKVEIKR
notes: Fully human IgG2 kappa with wild-type human IgG2 constant region; also called W3525 antibody; final lead antibody
